The record followed here is patent publication US11066655B2, “RNA polymerase, methods of purification and methods of use” (President and Fellows of Harvard College, priority 2013, dated 2021).

Data set [1] concerns plasmid pET24 DNA harboring the Syn5 RNAP gene (pET24-S5RNAP). Kind of data set: Filter-binding transcription assay (3H-AMP incorporation). The format is biochemical. On the procedure: FIGS. 4A-4B depict the effect of temperature and pH on Syn5 RNAP activity. A) Temperature. B) pH. RNA polymerase activity was measured as described in Materials and Methods described herein. The reactions contained 6 mM MgCl2, 200 µM 4 rNTPs (^3H-ATP), 50 nM Syn5 RNAP and 4 nM template (pET24-S5RNAP). The pH was 8.0 for assays in A and the temperature was 24° C. for B. Reactions were terminated and the amount of AMP incorporated was measured at 3, 10, and 30 min. The AMP incorporation was linear in this time range and the data measured at 10 min are presented.
FIGS. 5A-5C depict reaction requirements for Syn5 RNAP. A) Effect of NaCl on Syn5 RNAP activity. B) Effect of KCl on Syn5 and T7 RNAP (dashed line) activity. C) MgCl2 concentration on Syn5 RNAP activity. Reactions contained 200 µM 4 rNTPs (^3H-ATP), 50 nM Syn5 RNAP and 4 nM template (pET24-S5RNAP). For A and B, reactions also contained 6 mM MgCl2. For C, 160 mM KCl was present. Reactions were terminated and the amount of AMP incorporated was measured at 2.5, 5, and 10 min. AMP incorporation was linear in this time range and the data measured at 10 min are presented.
Basic reaction mixtures contained 40 mM Tris-HCl (pH 8.0 unless otherwise specified), 2 mM spermidine, 10 mM DTT, 200 µM[…] GTP, C[…]P, UTP and ^3H-ATP (20 cpm/pmole), 1.5 U/µl RNaseOUT™, 50 nM Syn5 or T7 RNAP and 4 nM plasmid pET24 DNA harboring the Syn5 RNAP gene (pET24-S5RNAP) that contains a single Syn5 promoter in the RNAP gene and a single T7 promoter preceding the gene. Reaction mixtures were incubated at 24° C. unless otherwise specified.
For the assays described in FIG. 7, reaction mixtures contained 40 mM Tris-HCl (pH 8.0), 6 mM MgCl2, 2 mM spermidine, 10 mM DTT, 20 nM Syn5 or T7 RNAP, 20 nM pET24-S5RNAP DNA, 1 mM ^3H-ATP (20 cpm/pmole), CTP, UTP (or GTP), and varying amounts of GTP (or UTP). 160 mM KCl was added for the Syn5 RNAP reactions. After various times the reactions were stopped by the addition of 20 mM EDTA. 4 µl of the mixtures were then loaded onto Whatman DE81 filter paper disks and the disks were washed to remove the unincorporated ^3H-ATP. The amount of insoluble ^3H-AMP, corresponding to nucleotides incorporated into newly synthesized RNA, was measured using a scintillation counter. The data were analyzed using Prism software.

The subject of data set [2] is linearized pET24-Syn5RNAP. Briefly: Long run-off RNA synthesis and incorporation of modified nucleotides (yield by A260). It is filed as biochemical. How it is done: FIGS. 12A-12B depict synthesis of long run-off product and the incorporation of modified nucleotides by Syn5 and T7 RNA polymerase. A) On the linearized plasmid template as shown in the schematic, the production of RNA by either RNA polymerase (10 nM) was analyzed on agarose gel as lane 2. […] Lane 3 and 4 show the same RNA synthesis when CTP was replaced by 5mCTP and UTP by Ps-UTP, respectively. B) Incorporation of UTP or Ps-UTP into small RNA by 22, 67, and 200 nM Syn5 and T7 RNA polymerase as analyzed by denaturing TBE polyacrylamide gel. Full-length run-off product and the N+1 product are shown.
The plasmid pET24 harboring the Syn5 RNAP gene (pET24-S5RNAP) that contains a single Syn5 promoter in the RNAP gene and a single T7 promoter preceding the gene was used for filter binding assay as shown in FIG. 8. pET24-S5RNAP was also linearized by EcoRI treatment and recovered by gel extraction to serve as template for FIG. 12A.
For the results shown in FIG. 12A, reaction mixtures (10 μl) contained 40 mM Tris-HCl pH 8.0, 6 mM MgCl2, 2 mM spermidine, 10 mM DTT, 600 µM[…]P, GTP, CTP (or 5Me-CTP), and UTP (or Pseudo-UTP), 1.5 U/µl RNaseOUT™ recombinant ribonuclease inhibitor, 0.04 U/µl yeast inorganic pyrophosphatase, 10 nM linearized (NotI treated) pET24-Syn5RNAP, 0 or 160 mM KCl, and 10 nM Syn5 or T7 RNAP. Syn5 reaction was carried out at RT and T7 at 37° C. RNA products were then purified with RNA Clean & Concentrator™-5 kit into a final solution of 10 µl and 5 µl each was mixed with 5 µl denaturing RNA loading dye. Samples were then heated at 65° C. for 5 min and loaded onto 1.6% TAE agarose gel. RNA products were visualized by ethidium bromide staining. For FIG. 12B, reaction mixtures (10 μl) containing 40 mM Tris-HCl pH 8.0, 6 mM MgCl2, 2 mM spermidine, 10 mM DTT, 200 µM[…]P, GTP and UTP (or Pseudo-UTP), 10 µM [[…]-^32P]CTP, 1.5 U/µl RNaseOUT™ recombinant ribonuclease inhibitor, 0.5 μM DNA templates S5P-tDNAR or T7P-tDNAR, and various amount of Syn5 or T7 RNAP were incubated at RT (for Syn5 RNAP) or 37° C. (for T7 RNAP) for 30 min before adding of one unit of DNase I to each reaction mixture and an additional incubation of 15 min at 37° C. Reactions were then terminated by the addition of 4 µl of loading dye containing 95% formamide and 40 mM EDTA. Samples were then heated at 90° C. for 1 min and 4 µl sample each was loaded onto 6% TBE-Urea denaturing polyacrylamide gel. After electrophoresis, gels were dried and analyzed using a Fuji BAS 1000 Bioimaging Analyzer.

Where [3] appears, read: CTP and UTP present, 1500 nt run-off transcript, optimal temperature of each RNAP.

For the molecule “T7 RNAP: RNA polymerase encoded by bacteriophage T7, from New England Biolabs [reference compound]”, the “sensitivity to ionic strength” value in data set [1] (KCl titration, FIG. 5B) is “highly sensitive to the ionic strength of the reaction”. Also, the “yield of RNA” value in data set [2] (160 mM KCl) was “completely inhibited”. Further, the “yield of RNA, based on A260” value is given as 0.64 µg in data set [2] (setting [3]), 0.75 µg in data set [2] (CTP replaced by 5mCTP) and 0.59 µg in data set [2] (UTP replaced by Ps-UTP).

B1: Syn5 RNAP: single subunit DNA-dependent RNA polymerase from marine cyanophage Syn5, amino acid sequence SEQ ID NO:23 (protein)
chain: MSFDLIARQLQRETEAAELARKRLQDARREANERSYASSNIESRKAIATFLDPIAQRIGERLFTLRRGTGAVDAAEVYKHLKNADHHHLALITMKTALDVLGKDPEPQIQQLTTAIGRNIQLELRLTYYAEENPELYKQASRFFHAGTGTRQKATVIKLKFNREGIEWDQWSRVTCHKVGQWLMLAMADVTGWIERATDRTSGGRKTKTRICYSREFLQHRDTILAAAEQLAFCQWPMLCPPIEWSNDHNGGYLSEQIRRVNPLIRKTGPLGTRKQGDIPLAMLNNLQGQAYKVNPEVLDIANHCYESNVTVGKFIRHAPLPVPPSPGEDCTEDQLTAYKRARREAEDFNAQISQKNWRTTEVMYVARKYADEASFWMPASFDYRGRVYFLNTALNPQGTDFDKALLYFAEEGPVNEWWLSFHVATTYGLDKETMVNRVQWARDNHELIDRIASDPVRHTEWHDADEPWCFLAACLEYKACVIDGTKQTSGLPIGIDATCSGLQHLAAMTRCGRTAALVNVTPTDKPADAYKTVAQASLKHLPKEQHEWITRKVTKRPVMCTPYGVTMSSARGYIRDQLVKDGHKEDLRSPGVLNGIVKAIFNEAIPEVIPGPVQVMAWLKRSAGQIIDRGDSTITWTTPSGFEVVQDLKKSKTYEVKTRIMGGARIKLQVGDGFTDEPDRDHHKSALAPNVVHSNDASLLHLTFAFWDKPFTVIHDCVLGRSCDMDQMGSDIRLHFAEMYKADVMQDWADQVGVELPVDLIKNTLDIDSVNQSLYFFS
modifications: Amino acid sequence of a cyanophage Syn5 RNAP
As to B1, the “potassium required for maximal activity” value in data set [1] was 160 mM. Also, the “metal ions in place of Mg2+ as cofactor” value in data set [1] (10 mM Ca2+, Co2+, Cu2+ or Ni2+) is “cannot replace Mg^2+”; in data set [1] (10 mM Zn2+ or Mn2+), “A small amount of activity”. For the same molecule, the “increase of activity by NaCl” value in data set [1] (80 mM NaCl, 6 mM MgCl2) is “two-fold”. Besides, the “stimulation of activity by KCl” value in data set [1] (160 mM KCl, 6 mM MgCl2) is on record as “three-fold”. This molecule also displayed an activity remaining in data set [1] (300 mM KCl) of 10%. Moreover, in data set [1] (24° C.), the “pH of highest activity” value amounted to 8.0. In addition, the “% of maximum activity” value in data set [1] (at 0° C.) worked out at 15%; in data set [1] (at 37° C.), 8%; in data set [1] (at 42° C.) it was 2%. Further, the Km in data set [1] (in the presence of 160 mM KCl, read-out: Km for MgCl2 as cofactor) was ~2500 µM. The optimum temperature in data set [1] (pH 8.0, 6 mM MgCl2, 50 nM RNAP, 4 nM template) is 24 °C. Also, in data set [2] (160 mM KCl), the “yield of RNA” value came out at 0.31 µg. Besides, in data set [2] (160 mM KCl), the “yield relative to that in the absence of salt” value was “about 50%”. Also, the “yield of RNA, based on A260” value in data set [2] (setting [3]) came out at 0.69 µg; in data set [2] (CTP replaced by 5mCTP), 0.76 µg; in data set [2] (UTP replaced by Ps-UTP), 0.63 µg.

One may read the Km as the concentration of substrate that gives half-maximal velocity.
